The source of these data is patent publication US20240207432A1 (BIOSION, published 2024).

Assay [1] deals with T1, full length human TROP2 on 293F-TROP2 cells (human, UniProt P09758 27-323).
T1 construct: also called 293F-TROP2 cells (clone ID #3A8); cell surface TROP2
T1 sequence: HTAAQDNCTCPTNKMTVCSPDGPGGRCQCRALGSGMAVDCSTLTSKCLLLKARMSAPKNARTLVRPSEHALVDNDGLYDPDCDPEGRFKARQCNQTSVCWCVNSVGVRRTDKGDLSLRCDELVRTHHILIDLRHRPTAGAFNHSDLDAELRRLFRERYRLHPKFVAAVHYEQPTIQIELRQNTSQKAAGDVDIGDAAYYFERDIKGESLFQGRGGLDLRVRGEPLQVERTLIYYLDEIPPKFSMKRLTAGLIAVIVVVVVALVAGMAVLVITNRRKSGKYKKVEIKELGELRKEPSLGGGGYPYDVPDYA
The assay is described as follows: FACS on 293F-TROP2 cells, MFI.

Assay [2] concerns the target T2, cynomolgus TROP2-his protein (cynomolgus monkey, UniProt P09758 27-272 (human entry), limits assumed).
T2 construct: no cleavage site is stated; also called Cynomolgus monkey TROP2-his protein; monkey TROP2
T2 chain: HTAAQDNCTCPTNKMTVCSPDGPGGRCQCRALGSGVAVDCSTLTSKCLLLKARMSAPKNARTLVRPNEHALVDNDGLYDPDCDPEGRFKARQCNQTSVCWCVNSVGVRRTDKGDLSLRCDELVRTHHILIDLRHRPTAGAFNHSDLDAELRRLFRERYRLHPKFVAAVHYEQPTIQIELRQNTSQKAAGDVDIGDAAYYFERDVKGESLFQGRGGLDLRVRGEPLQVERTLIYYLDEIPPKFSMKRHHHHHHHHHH
The assay is described as follows: indirect ELISA, cynomolgus TROP2-his coated at 2 ug/mL, OD(450-630). The method, then:
The anti-TROP2 antibodies of the disclosure were tested for their cross-reaction with cynomolgus TROP2 proteins. Briefly, 96-well micro plates were coated with 100 μl 2 μg/ml cynomolgus TROP2-his proteins (prepared in-house with SEQ ID NO: 70) in carbonate/bicarbonate buffer (pH 9.6) overnight at 4° C. ELISA plates were washed once with wash buffer (PBS+0.05% v/v Tween-20, PBST) and then blocked with 200 μl/well blocking buffer (5% w/v non-fatty milk in PBST) for 2 hours at 37° C. […] After a final wash, plates were incubated with 100 μl/well TMB (Innoreagents) at room temperature. The reaction was stopped 3-10 minutes later at room temperature with 50 μl/well 1M H₂SO₄, and the absorbance of each well was read on a microplate reader using dual wavelength mode with 450 nm for TMB and 630 nm as the reference wavelength. The OD (450-630) values were plotted against antibody concentration. Data was analyzed using Graphpad Prism software and EC₅₀ values were reported.
Background: ELISA stands for enzyme-linked immunosorbent assay.

Assay [3] deals with T3, human TROP2-his protein (human, UniProt P09758 27-274).
T3 construct: Biotin-labelled in the ELISAs, unlabelled analyte in Biacore; also called biotin-labeled human TROP2-his protein; biotin human Trop2-his
T3 sequence: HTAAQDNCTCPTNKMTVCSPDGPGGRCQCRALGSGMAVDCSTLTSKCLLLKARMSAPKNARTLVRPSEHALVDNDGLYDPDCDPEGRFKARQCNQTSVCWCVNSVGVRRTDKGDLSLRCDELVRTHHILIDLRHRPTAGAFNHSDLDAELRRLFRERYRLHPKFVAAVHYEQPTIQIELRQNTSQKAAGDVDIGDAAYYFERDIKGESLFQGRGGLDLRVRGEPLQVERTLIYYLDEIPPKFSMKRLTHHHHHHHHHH
The assay is described as follows: competitive ELISA: BM1 coated, antibody premixed with biotin human TROP2-his; blocked: binding of TROP2-his to coated BM1; partial only: OD falls from about 1.9 to a plateau of about 1.3.

In assay [4] the target is T2, cynomolgus TROP2-his protein. The assay is described as follows: indirect ELISA, cynomolgus TROP2-his coated, OD(450-630).
Assay [5] has the same target. Description: SPR Biacore, antibody captured on anti-human IgG CM5 chip, TROP2-his analyte. The procedure: (§1) Un-reacted moieties on the chip (biosensor) surface were blocked with ethanolamine. […] The antigen-antibody association kinetics was followed for 2 minutes and the dissociation kinetics was followed for 10 minutes. The association and dissociation curves were fit to a 1:1 Langmuir binding model using BIAcore evaluation software.

Assay [6] addresses T3, human TROP2-his protein. The description is as above. The procedure:
as §1

The target of assay [7] is T3, human TROP2-his protein. Description: epitope grouping ELISA, 15 ug/ml antibody premixed with biotin human TROP2-his; competitor: coated huA1E4F7D4-V16. The method, then:
(§2) Firstly, capture ELISA was performed to determine the concentration of biotin-labeled human Trop2 proteins appropriate for the epitope binning test. […] The plates were washed for 4 times, added with 100 μl/well of serially diluted biotin human Trop2-his proteins (SEQ ID NO: 67) in PBST with 2.5% non-fatty milk (starting from 1.3 μg/ml with a 5-fold serial dilution), and incubated for 40 min at 37° C. Then the plates were washed for 4 times and added with 100 μl/vell of HRP-streptavidin (Jackson Immuno Research, Cat #016-030-084). The plates were incubated for another 40 min at 37° C. Then the plates were washed again, and 100 μl/well TMB was added for color development at RT for 15 min followed by quenching with 50 μl 1M H₂SO₄. The OD values at 450 nm were read.
(§3) With the appropriate concentration determined above, epitope grouping ELISA was performed. […] ELISA plates were washed once with wash buffer (PBS+0.05% v/v Tween-20, PBST) and then blocked with 200 μl blocking buffer (5% w/w non-fatty milk in PBST) for 2 hours at 37° C. […] The mixtures were incubated at room temperature for 40 minutes. After plate washing for 4 times, the antibody/biotin-TROP2-his protein mixtures were added to the antibody coated plates, 100 μl per well, and incubated for another 40 min at 37° C. Then 100 μl/well of HRP-streptavidin was added and incubated for 40 min. Then OD₄₅₀ values were determined and the cross-competition capability was calculated (cross-competition capability of antibody X (%)=(OD₄₅₀ of Antibody X-[…] of Blank)/(OD₄₅₀ of no mAb-OD₄₃₀ of Blank)*100%).

Assay [8] deals with T3, human TROP2-his protein. The assay is described as follows: epitope grouping ELISA, 15 ug/ml antibody premixed with biotin human TROP2-his; competitor: coated BM1. The procedure:
as §2, §3

The EC50 is the concentration giving half of the maximal effect. A higher EC50 goes with a need for much substance. The IC50 is the midpoint of a concentration-inhibition curve. The term Kd denotes the equilibrium constant for the complex coming apart. A higher Kd goes with a looser complex. For orientation: koff means the first-order rate constant of dissociation. The low end stands for slow dissociation, the high end for fast dissociation. The term kon denotes the rate constant with which the complex forms. High values mean fast association, low ones slow association.

B1: mouse antibody A1E4F7D4 (antibody, V domains shown)
VH: QVQLQQSGAELAKPGTSVKMSCEASGYSFTTHWIHWMKQRPGQGLEWIGTIFPSNAYAVYNQKFRDRAIMTADRSSTTAYIQLTGLTSEDSAVYYCARASYFDYWGQGTTLTVSS
VL: DILLTQSPATLSVSPGERVTFSCRASQNIGTSIHWFQQRTTGSPRLLIKYASESISGIPSRFSGSGSGTDFTLHINSVESEDIAHYYCQHSHSWPFTFGSGTKLEIQ
notes: Mouse monoclonal IgG purified from hybridoma supernatant; also called Mouse A1E4F7D4
For the molecule B1, the EC50 in assay [1] came to 1.01 nM; in assay [2] it was 0.576 nM; in assay [4], 0.837 nM. The IC50 with human TROP2-his protein [3] is 0.702 nM.

B2: huA1E4F7D4-V16 (antibody, human IgG1, kappa, V domains shown)
VH: QVQLVQSGAEVKKPGASVKVSCKASGYSFTTHWIHWVRQAPGQGLEWIGTIFPSNAYAVYNQKFRDRATMTADTSISTAYIELSRLRSDDTAVYYCARASYFDYWGQGTTVTVSS
VL: EIVLTQSPATLSLSPGERATLSCRASQNIGTSIHWFQQKPGGAPRLLIKYASESISGIPSRFSGSGSGTDFTLTISSLEPEDFAVYYCQHSHSWPFTFGQGTKLEIKR
notes: Positions of the X residues are given in the claims; also called humanized antibody huA1E4F7D4-V16
For the molecule B2, in assay [5], binding was characterised by a dissociation constant (Kd) of 0.132 nM, the koff worked out at 0.000164 s⁻¹ and the kon was 1.25e+06 M⁻¹ s⁻¹. Also, in the assay with human TROP2-his protein [6], binding was characterised by a dissociation constant (Kd) of 0.183 nM, the koff is 0.000195 s⁻¹ and the kon is 1.06e+06 M⁻¹ s⁻¹. The OD450 with human TROP2-his protein [7] stood at 0.027 OD450. In the assay with human TROP2-his protein [3], this molecule returned an IC50 of 0.353 nM. A half-maximal response in assay [4] (EC50) required 0.611 nM. Besides, in the assay with human TROP2-his protein [8], the OD450 worked out at 1.42 OD450.

B3: mouse antibody A1E11A12D1 (antibody, V domains shown)
VH: QVQLQQSGAELARPGASVKLSCMASGYTFTTYGISWVRQRTGQGLEWIGQIYPGSDYSYCDEDFKGKATLTADKSSSTAYMQLSSLTSEDSAVYFCARASYFDYWGQGTTLTVSS
VL: DILLTQSPAILSVSPGERVSFSCRASQTIGTAIHWYQQRANGSPRLLIKYASESISGIPSRFSGSGSGTDFALSINTVESEDFAYYYCQQSNNWPFTFGGGTKLEIR
notes: Mouse monoclonal IgG purified from hybridoma supernatant
In assay [2], B3 displayed an EC50 of 0.757 nM.

B4: mouse antibody A1H3C5H8E12 (antibody, V domains shown)
VH: QVQLQQSGAELVRPGTSVKMSCKAAGYTFTNYWIDWVKQRPGHGLEWIGNIFPGGFYTNYNEKFKGKATLTADTSSSTAYMQLSSLTSEDSAIYYCARGGVFDYWGQGTTLTVSS
VL: DILLTQSPAILSVSPGERVSFSCRASQSIGTSIHWYQQRTNGSPRLLIKYASESISGIPSRFSGSGSGTDFTLSINSVESEDIADYYCQQSNSWPYTFGGGTKLEIK
notes: as for B3
In assay [2], B4 had an EC50 of 0.593 nM.

B5: benchmark (in house prepared sacituzumab) (antibody, human IgG1, kappa, V domains shown)
VH: SVQLQQSGSELKKPGASVKVSCKASGYTFTNYGMNWVKQAPGQGLKWMGWINTYTGEPTYTDDFKGRFAFSLDTSVSTAYLQISSLKADDTAVYFCARGGFGSSYWYFDVWGQGSLVTVSS
VL: DIQLTQSPSSLSASVGDRVSITCKASQDVSIAVAWYQQKPGKAPKLLIYSASYRYTGVPDRFSGSGSGTDFTLTISSLQPEDFAVYYCQQHYITPLTFGAGTKVEIKR
notes: also called BM; BM1
B5: the EC50 in assay [1] was 1.14 nM; in assay [2], 0.134 nM; in assay [4] it was 0.599 nM. For the same molecule, the Kd in assay [5] is 0.529 nM; with human TROP2-his protein [6] it was 0.983 nM. Besides, the figures for the OD450 in the assay with human TROP2-his protein [7] and with human TROP2-his protein [8] were 1.61 OD450 and 0.048 OD450, respectively.

B6: mouse antibody C1B3B12D2 (antibody, V domains shown)
VH: QVQLQQSGPELVRPGTSVKMSCKAAGYTFTKFWIGWVKQRPGHGLEWIGNIYPGGAYINYNENFKGKATLTADTFSSTAYMQLNSLTSADSAIYYCAREGSSGYWGQGTTLTVSS
VL: DIVMTQSPSSLTVTAGEKVTLSCKCSQSLLNSGTQENYLTWYQQKPGQPPKMLIYWASIREPGVPDRFTGSGSGTDFTLTINNVQAEDLAVYYCQHDYSYPFTFGSGTKLEIK
notes: as for B3
For the molecule B6, in assay [1], the EC50 came to 0.636 nM.
